According to article doi:10.1101/2023.08.04.552031, “Oligomerization and positive feedback on membrane recruitment encode dynamically stable PAR-3 asymmetries in the C. elegans zygote” (bioRxiv, 2023):

B1: PAR-3::GFP, endogenously tagged (C-terminal fusion of GFP to PAR-3 from the endogenous locus) (natural protein, C. elegans, UniProt Q17353 1-1379, looked up)
chain: MSASSTSSSSTSCPEGGEPSGSCKSSDEGESTLKKRMQQYGIASGYANSSISTLDRSQYQSLPLNGTRRVTVQFGRMKIVVPWKESDQTVGQLADAALLRYKKARGMANEDRIHVHRLECASDGGILDMDDVLEEVFDLNYDQILAITDEANGGSTTPTYSQIQKQQHHYAQPLPYARKFDGGPSTPIASAFGSVTVNHQAHRAASPYNVGFARSNSRDFAPQPTHSKERRDSVVEVSSFDQIPQSGLRVSTPKPSRQSEDVIDGKPMNQPILRSSLRTEASGSRTEEATPVKQSRVTLSPEVEKKLAEQDERKSERRKHYDKNPGRFARGSDRKSRITDALLDARDRIADQLESQNPAEETKSQMIRVKIDQGPMPGTSLVTFPPIPEKSENEKQLGIEVNAVFDESSELPGTSEPTKLSSVQIMKIEDGGRIAKDGRIRVGDCIVAIDGKPVDQMSIIRVRASISDLAAVTSRPVTLIINRSLESFLEQESSAKPIQSALQQANTQYIGHTTVVELIKSSNGFGFTVTGRETAKGERLFYIGTVKPYGVALGHLKSGDRLLEINGTPTGQWTQSEIVEKLKETMVGEKIKFLVSRVSQSAIMSTSASSENKENEETLKVVEEEKIPQKLPLPALMTPPVPKDTPALSPSGASRFEIVIPFINGSSSAGLGVSLKARVSKKSNGSKVDCGIFIKNVMHGGAAFKEGGLRVDDRIVGVEDIDLEPLDNREAQAALAKKLKEVGMISSNVRLTISRYNECNPGQISRDLSRITVDASSPSPSSRMSSHTAPDSLLPSPATRGTSSSGADSSHSRQSSASSAVPAVPARLTERDSIVSDGTSRNDESELPDSADPFNREGLGRKSLSEKRGMGAAADPQHIKLFQDIKHQRQNSAPTSSTQKRSKSQPRSSSQRNYRSPMKLVDLPTTAAASASTNSQNLDDSDMLNRRSQSMESINRPVESILRGTGQIPTGSSSKVQFMQAASPDQHPFPPGAALLRLKNEESRSRDKSRRKSMGNPFSAMRNFFGFGSKSRDASPEKTPTESVQLRSVERPKSIIDERNNGSSERAPPPLPPHQSQRRGSGGNVFVDYGEPYGLIPQYPHNTTSGYESYADSELYDRYAAHRYHPRGGPIIDEDEYIYRQQSTSGNSPINTSSYVNYGLPASNAYHVGSRIPPQTSSGSISKTSGAMRRVYPAEYDEDVAYHQQIPQQSTRYQQGSGSGRGNADYHHMFNSWFAYTGGGAVGAAPVIKSSYGSSPVRIAAASAIERGESFVVEPVSGSSASATDRRGRSTSSGAVASGSSSTGFQYAAKEKYADARSGKFNGGSTRLFIPRHGGGLSAAAFATNFGGEAYETRGGGAGGSPSQYRRRDQGPPHRFPQY
notes: PAR-3, C. elegans, oligomeric scaffold protein; expressed from the endogenous locus; Oligomers of variable size (exponential size distribution) at the cell membrane; also called endogenously-tagged PAR-3::GFP; par-1; source: expressed from the endogenous locus in C. elegans, observed in living one-cell embryos; not shown: GFP, C-terminal, kept
B2: PAR-3::GFP, transgenic (natural protein, C. elegans, UniProt Q17353 1-1379, looked up)
chain: B1 chain
notes: PAR-3, C. elegans; transgenically expressed; The oligomers from which single labelled molecules depolymerise probably also hold unlabelled PAR-3 of the embryo; also called transgenic PAR-3::GFP; full length PAR-3::GFP

Assays:
[1] = target: the molecule itself; assay: particle intensities calibrated to single GFP molecules (near-TIRF imaging of living embryos); anterior membrane, where PAR-3 density is higher; homozygous par-1 mutant embryos, late maintenance phase; streaming mode, 100% laser power, 50 msec exposure; features binned by intensity against the mean single molecule intensity after photobleaching; size distribution fitted to An = A1 α^n−1
[2] = target: the molecule itself; assay: particle intensities calibrated to single GFP molecules (near-TIRF imaging of living embryos); posterior membrane, where PAR-3 density is lower; homozygous par-1 mutant embryos, late maintenance phase; streaming mode, 100% laser power, 50 msec exposure; features binned by intensity against the mean single molecule intensity after photobleaching; size distribution fitted to An = A1 α^n−1
[3] = target: the molecule itself; assay: single molecule tracking and release curves (near-TIRF imaging of living embryos); single PAR-3::GFP molecules, 100% laser power, 50 msec exposures, duty ratio of exposure varied; release curves fitted to exponentials from tmin = 1 sec; linear fit kops = kdep + dr * kpb, the intercept is kdep (depolymerization of a subunit from membrane-bound oligomers); also in par-6(RNAi) and cdc-42(RNAi) embryos, no significant …

Row | Protein | stoichiometry N [1] | stoichiometry N [2] | koff [3]
1 | B1 | 3.48 ± 0.65 subunits (mean oligomer size) | 1.65 ± 0.16 subunits (mean oligomer size) | –
2 | B2 | – | – | 0.08 s⁻¹
